Reference: the supplement of paper PMC9170038

System: MS2 coat protein
Experiment: apparent KD of MS2 coat protein; designed switch direction (-1 OFF switch, 1 ON switch): 1; higher = weaker reporter binding
Outline: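 RNA switches sharing common flanks were transcribed by stalled E. coli RNA polymerase on Illumina chips. A doubling series of SNAP-549-labelled MS2 coat protein, from 0.7 or 1.5 nM to 3 µM, was applied in Tris-HCl pH 7.5 buffer with KCl, MgCl2, BSA, DTT, tRNA and Tween-20. Each step lasted 0.8–1.5 h at the bottom of the series and 10–20 min at the top. Normalised cluster fluorescence was curve-fitted, giving apparent KD as the per-design median over clusters.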

[1] = input ligand: microRNA oligo, concentration not stated
[2] = Eterna round: R95, input ligand: FMN 200 uM
[3] = Eterna round: R95, input ligand: microRNA oligo, concentration not stated
[4] = Eterna round: R95, input ligand: none

Row | Sequence | apparent KD of MS2 coat protein [1] [nM] | apparent KD of MS2 coat protein [2] [nM] | apparent KD of MS2 coat protein [3] [nM] | apparent KD of MS2 coat protein [4] [nM] | apparent KD of MS2 coat protein (input ligand: FMN 200 uM) [nM] | apparent KD of MS2 coat protein (input ligand: none) [nM]
1 | GUUACAUGAGGAUCACCCAUGUAUGUGUGGGAGUAAGUGUCUUAGGAUAUCUAUGAUUUAAUUGAAGAGAAGGAAGAUUGUUGU [JMF's solution 84] (Eterna round: R96, puzzle: Same State NG 3) | 99.1 |  |  |  |  | 
2 | GCAUCACAUGAGGAUCACCCAUGUCUUCGGAGCCGAGGAUAUGGUCACUGUAAACAGUGGCCAGAAGGCGGGAUGC [SS1 - Son of Teenbexe v1] (puzzle: Same State 1) |  | 30.2 | 41.5 | 61.3 |  | 
3 | UGGUACAUGGGAGGAUAUCUCAUGGAGACAUGAGGAUCACCCAUGUAGAUGGCCGGUAACCGGAGAGAGAAGGCCCAUGUACCU [JL SSNG1 3.67] (Eterna round: R96, puzzle: Same State NG 2) | 152 |  |  |  | 79.6 | 198
4 | AAGAGGUCCGCAGGAUAUACCCGGCCUCGCCGGGUAGAAGGGUGAACCUCAUAACCCACCACACACAUGAGGAUCACCCAUGUA [Enisaon] (Eterna round: R96, puzzle: Same State NG 1) | 1.93 |  |  |  | 494 | 111
5 | AUUUUUGAUGCAGGAUAUGAUUAACAUGAGGAUCACCCAUGUGGUGUUGUGAGUAAGGAGAGUGAUCAGAAGGGCAUUUUUUUU [JMF's solution 93] (Eterna round: R96, puzzle: Same State NG 2) | 269 |  |  |  | 810 | 365
6 | GGUAUUAACACAGGAUAUGCUUACGAAACGUAAGCAGAAGGGUGAACAUGAGGAUCACCCAUGUAUGUACCAGGGCGUGAGCCC [JL SSNG1 1.73] (Eterna round: R96, puzzle: Same State NG 1) | 510 |  |  |  | 137 | 1040
7 | AAAGUGCCGACGAAGGAUAUAGCGGGUGAGACAUGAGGAUCACCCAUGUAUGCAGAACUCAUCCUCUAGAAGGUUGAGACGGCUA [Bionlateat] (Eterna round: R96, puzzle: Same State 2) | 31.1 |  |  |  | 151 | 95.9
8 | AUCAAAACAAGUUGCAGUGUUCGUCUUUCACAUGAGGAUCACCCAUGUAAUAGCCCAGUGGAAGCGCUCAGGCCACC [Usbi] (puzzle: Sensor for hsa-mir-208a) |  | 225 | 57.7 | 210 |  | 
9 | AUCCUACAUGAGGAUCACCCAUGUGACGCCUCGAUAGGAUAUGCGUGUGCCUUGGCGCAUGCAGAAGGAUUGGAGC [JL Aveso mod 5] (puzzle: Same State 1) |  | 88.4 | 72.6 | 78.5 |  | 
10 | GAGGGCGAAAGCAACAUGAGGAUCACCCAUGUCCUCGGAGGGCAGGAUAUCCGGCGGUAGCCGAAGGAGAAGGGUCGAAAAGAA [AK SSNG3-V2-34] (Eterna round: R96, puzzle: Same State NG 3) | 292 |  |  |  | 34.8 | 61.1
11 | GACAAUCUAUCUGAGGAUAUCAUGAUAAUAACAUGAGGAUCACCCAUGUGCAGGAAAACUGCAUAUGAGAAGGCAGAUAGAUUGA [Mat - Same State 2 - Mod - D14] (puzzle: Same State 2) |  | 34.2 | 62.3 | 294 |  | 
12 | AGCUAGUACCGAGGAUAUACAUACAUGAGGAUCACCCAUGUAUACAUGAACAAUUGAGACUACAUGUAGAAGGCGGUACUAGCA [JL SSNG2 1.19] (Eterna round: R96, puzzle: Same State NG 2) | 37.4 |  |  |  |  | 
13 | CCGGUAAAUGGAGGAUAUGGAGCCUUAUUGGCUCCAGAAGGCUAACAUGAGGAUCACCCAUGUAUACCGGCGGUCAAUAGACCG [Eli NG1ss - 64] (Eterna round: R96, puzzle: Same State NG 1) | 16.3 |  |  |  | 11 | 21.8
14 | CGUCCGGCCUGUGCUGGCCGGCGGCUUGUACAUGAGGAUCACCCAUGUUCUUGUGCUGGCUUUUUGCUCGUCUUGUG [salish99_mir208a_022] (puzzle: Sensor for hsa-mir-208a) |  | 32.2 | 16.3 | 39.5 |  | 
15 | GGAGCCGGUACUGAGGAUAUUUAUAUUAAAACAUGAGGAUCACCCAUGUAGGCCAGAAGGCCUUGGGAGAAGGCAGAUCGGCUCC [Biseusra - 5] (puzzle: Same State 2) |  | 15.1 | 46.2 | 72.8 |  | 
16 | GAAUUUGAACUACAGGAUAUAUAGCAGAUGACAUGAGGAUCACCCAUGUAAGAGAAAGGAGGGAAAUAGAAGGGUAUGGGAGGUG [JR_SS2_Sub034] (puzzle: Same State 2) |  | 34.5 | 32.9 | 37.7 |  | 

Row | Sequence | apparent KD of MS2 coat protein [1] [nM] | apparent KD of MS2 coat protein [2] [nM] | apparent KD of MS2 coat protein [3] [nM] | apparent KD of MS2 coat protein [4] [nM] | apparent KD of MS2 coat protein (input ligand: FMN 200 uM) [nM] | apparent KD of MS2 coat protein (input ligand: none) [nM]
17 | GUGCGAGUGCCACAGGAUAUACGUGGAUCGACAUGAGGAUCACCCAUGUAUAUCCUAAUAAUUGCGUAGAAGGGUGGUCAGUCGG [Inzage] (puzzle: Same State 2) |  | 136 | 74.8 | 105 |  | 
18 | AUAGUUGCCGAAGGAUAUGAUGAGGAUCACCCAUCAGAAGGUUGGCUAUUGGGUGGACAUGAGGAUCACCCAUGUCCUUUGGUU (Eterna round: R96, puzzle: Same State NG 1) | 68.9 |  |  |  | 58.2 | 113
19 | GAUAGACAUGAGGAUCACCCAUGUGACAAAACCACAGGAUAUCAUGCAGGCGUAACUGCAUGAGAAGGGUGAGACU [Quanve] (puzzle: Same State 1) |  | 61.1 | 20.6 | 35.8 |  | 
20 | GGAGCCAAGGCAGGAUAUUCAUAUUAAAACAUGAGGAUCACCCAUGUAAAGGCCAGAAGGCCGUGGGAGAAGGGCCAUGGCUCG [Xeonanis - 13 mod15] (Eterna round: R96, puzzle: Same State NG 2) | 51.7 |  |  |  | 38.5 | 116
21 | CUGAGCAAUCUAGGAUAUCACGUCGAUUAGACGUGAGAAGGAGAUCAUAACAUGAGGAUCACCCAUGUAUUACAUGAAGCUCAG [SSNG1/7-A2] (Eterna round: R96, puzzle: Same State NG 1) | 13.8 |  |  |  | 11.7 | 19.1
22 | GAGAGAGGGUGAGGAUAUUUAGUGAUAAUGAUAGGAGAAGGCACAGACAUGAGGAUCACCCAUGUGGGAAUAAUCCAGAGAGAG [Parity 9 - Jieux - Same State NG 1] (Eterna round: R96, puzzle: Same State NG 1) | 31.9 |  |  |  | 199 | 186
23 | GGAGCCAAGGCAGGAUAUUCAUAUUAAAACAUGAGGAUCACCCAUGUAAAGGCCAGAAGGCCUUUGGAGAAGGGCCAUGGCUCG [Xeonanis - 13 mod14] (Eterna round: R96, puzzle: Same State NG 2) | 15 |  |  |  | 17.7 | 24.4
24 | GGGUAGGAAUUACAGGAUAUAUAGAAGUUGACAUGAGGAUCACCCAUGUAUGGGUUGGGAGGAGGAUAGAAGGGUAUGAGAGGUG [JR_SS2_Sub032] (puzzle: Same State 2) |  | 125 | 123 | 113 |  | 
25 | AUAAAACAUGAGGAUCACCCAUGUCAACAAAGUCGAGGAUAUGGGCAAAGAAAAUAAGAACCAGAAGGCGAAUAAU [salish99_ss1_r3_056] (Eterna round: R96, puzzle: Same State 1) | 245 |  |  |  |  | 
26 | AUAGUUUCCGAAGGAUAUGAUGAGGAUCACCCAUCAGAAGGUUGGCUAUUGGGCGGACAUGAGGAUCACCCAUGUCUUUCGGUU (Eterna round: R96, puzzle: Same State NG 1) | 76.8 |  |  |  | 84.7 | 101
27 | CUUUUUCCUUUUACAUGAGGAUCACCCAUGUUUUCAUAUUGAGAGGAUAUCGUAUUUGGAAUUUUCGAGAAGGCUCAUUUGUAU [JR_SSNG3_Sub075] (Eterna round: R96, puzzle: Same State NG 3) | 25.5 |  |  |  | 39.4 | 28.9
28 | CAUCCCUCCACAGGAUAUCGACCAAUAAAACGGCGAGAAGGGUGGCCACAUGAGGAUCACCCAUGUGGAAUUGGAUGAACUACC [Atusmaceor] (Eterna round: R96, puzzle: Same State NG 1) | 120 |  |  |  | 141 | 77
29 | AAAGUACAUGAGGAUCACCCAUGUCCAAACAAGUAAGGAUAUACGAAAACAAAACAAAAUGUAGAAGGUACAACAA [Same State 1 #2] (puzzle: Same State 1) |  | 18.1 | 17.9 | 26.4 |  | 
30 | AGUCCAGCCUGAGCUGGACAAAAGCAUGUACAUGAGGAUCACCCAUGUCAUGUACAAGCUUUUUGCUCGUUUUAAUA [Zipper 49 - 14] (puzzle: Sensor for hsa-mir-208a) |  | 509 | 14 | 679 |  | 
31 | UGUUGUAAUACAGGAUAUAUAUUAUUUUUAUUUAUAGAAGGGUAAUCACAUGAGGAUCACCCAUGUAUAUACGAGGAAGAAGAG [JMF's solution 3] (Eterna round: R96, puzzle: Same State NG 1) | 139 |  |  |  |  | 
32 | GAGUGGAGGUAAGGAUAUACAAUGAUAAUCACAGUAGAAGGUACUAACAUGAGGAUCACCCAUGUAGGACUAUACCAGAGAGGG [Parity 39 - Jieux - Same State NG 1] (Eterna round: R96, puzzle: Same State NG 1) | 13 |  |  |  |  | 
